We go through 11 molecules from patent US20230382976, “APTAMER ASSEMBLIES FOR PROTEIN CROSSLINKING” (UNIVERSITY OF FLORIDA RESEARCH FOUNDATION, INC., published 2023).

Data set [1] concerns the target T1, Type I collagen (Rattus norvegicus, UniProt P02454;P02466 P02454:152-1207,P02466:86-1125). In words: binding capacity identical to HAP aptamer; fibers form above about 5 pmol ssDNA/ug collagen. The settings on record: tags: rat tail tendon, Corning; chain copies: 2,1. The protocol:
(§1) Complexes spontaneously formed upon mixing and were incubated at room temperature overnight followed by storage in solution at 4° C. until needed.
(§2) The amount of ssDNA in the DNA aptamer-collagen complex self-assembled fibers for different volume fractions of type I collagen and ssDNA oligomer was assessed fluorometrically by measuring the intensity of a fluorescent DNA stain. Solutions of different volume fractions were diluted at a 1:2 volume ratio of fiber solution to SYBR Safe DNA stain (Invitrogen). The stain concentrate was diluted first at a 1:10,000 volume ratio in deionized water. Then the mixtures were incubated protected from light for 30 minutes at room-temperature. After incubation, the mixtures were centrifuged at 2000 g for five minutes. Supernatant was plated in duplicate into black walled 96 well microplates and fluorescence intensity was measured by exciting at 488 nm and detecting at 520 nm using a UV-Vis Synergy H1 plate reader (BioTek). ssDNA in the supernatant was quantified using a standard curve fit with a 4-parameter logistic regression to correlate fluorescent intensity to ssDNA concentration. Individual standard curves were prepared for each ssDNA to account for any differences in DNA stain interaction with the two ssDNA sequences due to their secondary structure.

Data set [2] addresses T1, Type I collagen. In words: binding capacity identical to random ssDNA; fibers form above about 5 pmol ssDNA/ug collagen. The settings on record: tags: rat tail tendon, Corning; chain copies: 2,1. On the procedure:
as §1, §2

For data set [3], the target named is T1, Type I collagen. The experiment in a line: fiber formation by microscopy, deionized water. The settings on record: tags: rat tail tendon, Corning; chain copies: 2,1.
Data set [4] has as its target T1, Type I collagen. The experiment in a line: maximum binding at 23.16% mass fraction ssDNA; SYBR Safe depletion assay, deionized water, RT. To be noted: tags: rat tail tendon, Corning; chain copies: 2,1.
Data set [5] has as its target T1, Type I collagen. In words: maximum binding at 12.27% mass fraction ssDNA; SYBR Safe depletion assay, deionized water, RT. To be noted: tags: rat tail tendon, Corning; chain copies: 2,1.
The target in data set [6] is T1, Type I collagen. In words: fiber formation, same as random sequence; none above 50% vol collagen. The settings on record: tags: rat tail tendon, Corning; chain copies: 2,1. The text has this: (§3) A VEGF-R2 targeting aptamer sequence was used in both a monovalent (single sequence) and divalent form (two single sequences tethered by a (PEG)6 linker). For all studies, we used a random sequence ssDNA of the same length and GC content as a control to determine the effect of the targeting and functionality of the DNA aptamer as compared to the effect of purely ssDNA, respectively.32 The VEGF-R2 targeting aptamer monovalent sequence is: ‘5-GATGTGAGTGTGTGACGAGCTACGACGTCTGGTGTAATTTATAAAGACACTGTGTATATCAACAACAGAACAAGGAAAGG-3’ (SEQ ID NO:14) .The random ssDNA oligomer monovalent sequence is: ‘5-TAATGAGAAGTATGTGTAGAGTCAATGAGATACGCAATTGGGAAGACAAGAGTATTGACTCGGACTGAGTACAATCGTCC-3’ (SEQ ID NO:15). […]
(§4) Fiber morphology for the different volume fractions of type I collagen and DNA aptamer was qualitatively assessed by phase and fluorescence microscopy using immobilized fibers. For fluorescence microscopy, immobilized fibers were stained with SYBR Safe DNA stain (Invitrogen) diluted at a 1:10,000 volume ratio in deionized water. […] To quantify surface coverage, full well images were taken with a Keyence BZ-X700 fluorescence microscope.

Data set [7] deals with T1, Type I collagen. The experiment in a line: maximum binding at 17.83% mass fraction ssDNA; SYBR Safe depletion assay, deionized water, RT. The settings on record: tags: rat tail tendon, Corning; chain copies: 2,1.
Data set [8] deals with T1, Type I collagen. In words: fiber formation, same as VEGF-R2 aptamer. To be noted: tags: rat tail tendon, Corning; chain copies: 2,1.
Source text: as §3, §4

Data set [9] concerns the target T1, Type I collagen. The experiment in a line: maximum binding at 29.32% mass fraction ssDNA; SYBR Safe depletion assay, deionized water, RT. To be noted: tags: rat tail tendon, Corning; chain copies: 2,1.
Data set [10] concerns the target T1, Type I collagen. The experiment in a line: percent DNA bound rises with collagen; SYBR Safe depletion after centrifugation; fibers at 10-30% vol collagen. The settings on record: tags: rat tail tendon, Corning; chain copies: 2,1; hairpins predicted. The protocol: In 96 well plate, mixtures of scrambled aptamer (1 μM) were mixed with rat tail type I collagen (0.3 mg/mL). Mixtures were at 25% increments from 0% to 100% volume fraction collagen with 1 replicate. Solutions were incubated at room temperature for 2 hours and then SYBR Safe DNA stain was added in a 2:1 ratio to the aptamer-collagen solutions and incubated for 30 minutes in the dark at room temperature. The solutions were centrifuged at 2000 g for 5 minutes and the supernatant was added to a 96 well plate giving 2 repeats per solution. Fluorescent intensity was measured by exciting at 488 nm and reading emission at 520 nm.

T1 sequence (P02454 152-1207, chain 1 of 2): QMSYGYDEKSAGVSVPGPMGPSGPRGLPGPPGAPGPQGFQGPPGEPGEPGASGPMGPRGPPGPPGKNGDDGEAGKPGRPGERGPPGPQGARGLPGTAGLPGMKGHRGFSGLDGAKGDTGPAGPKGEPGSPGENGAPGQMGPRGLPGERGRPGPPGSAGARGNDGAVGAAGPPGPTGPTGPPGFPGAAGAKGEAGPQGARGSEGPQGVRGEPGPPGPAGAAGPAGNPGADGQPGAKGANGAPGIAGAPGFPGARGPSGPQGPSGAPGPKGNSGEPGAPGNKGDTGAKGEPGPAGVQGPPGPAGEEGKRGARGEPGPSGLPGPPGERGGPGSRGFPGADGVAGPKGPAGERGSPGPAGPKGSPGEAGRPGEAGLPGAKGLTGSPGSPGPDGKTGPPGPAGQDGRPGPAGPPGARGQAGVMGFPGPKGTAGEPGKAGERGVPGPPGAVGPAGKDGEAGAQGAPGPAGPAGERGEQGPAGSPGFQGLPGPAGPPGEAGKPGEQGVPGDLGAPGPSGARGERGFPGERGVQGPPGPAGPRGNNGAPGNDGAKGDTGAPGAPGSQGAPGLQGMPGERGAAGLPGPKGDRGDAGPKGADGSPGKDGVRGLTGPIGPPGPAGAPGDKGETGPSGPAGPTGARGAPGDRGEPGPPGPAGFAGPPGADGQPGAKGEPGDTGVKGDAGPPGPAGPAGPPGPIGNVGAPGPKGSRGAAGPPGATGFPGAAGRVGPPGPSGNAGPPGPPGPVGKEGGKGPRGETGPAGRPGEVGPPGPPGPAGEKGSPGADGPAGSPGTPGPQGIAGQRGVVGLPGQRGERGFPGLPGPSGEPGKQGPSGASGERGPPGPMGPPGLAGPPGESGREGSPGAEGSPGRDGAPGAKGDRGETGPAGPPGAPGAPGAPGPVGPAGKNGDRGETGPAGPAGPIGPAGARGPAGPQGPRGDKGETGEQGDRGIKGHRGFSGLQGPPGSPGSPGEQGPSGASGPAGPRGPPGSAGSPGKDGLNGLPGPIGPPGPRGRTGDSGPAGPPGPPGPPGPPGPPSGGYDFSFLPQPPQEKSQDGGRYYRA
T1 sequence (P02466 86-1125, chain 2 of 2): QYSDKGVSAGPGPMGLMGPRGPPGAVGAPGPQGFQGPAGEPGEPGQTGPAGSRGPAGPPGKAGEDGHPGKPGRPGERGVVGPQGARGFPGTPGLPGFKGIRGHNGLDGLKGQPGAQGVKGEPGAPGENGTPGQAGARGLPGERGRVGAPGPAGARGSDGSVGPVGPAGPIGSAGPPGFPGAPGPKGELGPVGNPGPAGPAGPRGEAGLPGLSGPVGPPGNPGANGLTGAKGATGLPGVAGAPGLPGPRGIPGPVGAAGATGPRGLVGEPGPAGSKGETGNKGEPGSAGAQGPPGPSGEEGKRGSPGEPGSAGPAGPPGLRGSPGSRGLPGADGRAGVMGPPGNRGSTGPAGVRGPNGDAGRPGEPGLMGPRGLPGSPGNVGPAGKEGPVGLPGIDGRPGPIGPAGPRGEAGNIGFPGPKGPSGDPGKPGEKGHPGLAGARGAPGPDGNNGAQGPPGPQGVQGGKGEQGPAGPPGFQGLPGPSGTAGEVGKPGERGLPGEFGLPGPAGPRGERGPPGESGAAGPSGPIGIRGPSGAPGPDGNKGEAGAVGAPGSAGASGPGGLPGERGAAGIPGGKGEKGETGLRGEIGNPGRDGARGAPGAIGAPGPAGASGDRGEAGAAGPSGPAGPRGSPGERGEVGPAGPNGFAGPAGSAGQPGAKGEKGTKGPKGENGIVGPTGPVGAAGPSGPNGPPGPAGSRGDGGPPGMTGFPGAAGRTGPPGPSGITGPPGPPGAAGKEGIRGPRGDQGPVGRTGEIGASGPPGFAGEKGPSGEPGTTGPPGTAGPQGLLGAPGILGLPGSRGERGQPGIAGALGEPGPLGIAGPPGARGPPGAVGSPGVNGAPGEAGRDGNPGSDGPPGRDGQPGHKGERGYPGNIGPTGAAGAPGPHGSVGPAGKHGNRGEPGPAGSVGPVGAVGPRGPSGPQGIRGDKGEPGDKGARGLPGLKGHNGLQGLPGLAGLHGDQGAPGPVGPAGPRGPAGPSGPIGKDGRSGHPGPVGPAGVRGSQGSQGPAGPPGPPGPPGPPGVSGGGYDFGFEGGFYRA

Regarding TAAAACGCGCTTAAGCTGGTGTTACTCGAGCGGTCTTCTA (ssDNA) [random ssDNA 40 nt (Sequence R)], the binding result in data set [1] is recorded as “binds”. As to CAGGTGGGCGCGCTGTCGTGGGTGCTCGGGTGCGGTTGGG (ssDNA) [HAP aptamer (Aptamer G)], in data set [2], the binding result is on record as “binds”. With CAGGTGGGGGCGCTGTCGTGGGGGCTCGGGGGCGGTGGGG (ssDNA) [Aptamer G+], in data set [3], the binding result was “binds”. In the case of CAGGTGCGCGCGCTGTCGTGCGTGCTCGCGTGCGGTTGCG (ssDNA) [Aptamer G-], the binding result in [3] was “binds”. On to CAGAGAATCTCCATTTTAGCACTTACCTGTGAC (ssDNA) [random 33 nt ssDNA], for which the binding result in [4] is recorded as “binds”. In the case of GGAGCTGTTGGCGTA (ssDNA) [random 15 nt ssDNA], the binding result in data set [5] is reported as “binds”.

B1: VEGF-R2 aptamer monovalent (ssDNA)
DNA: GATGTGAGTGTGTGACGAGCTACGACGTCTGGTGTAATTTATAAAGACACTGTGTATATCAACAACAGAACAAGGAAAGG
As to B1, in data set [6], the binding result is “binds”.

B2: random 90 nt ssDNA (ssDNA)
DNA: AATTTAGGAGCTGAAGGTCAGGGCACCAGCAGCCTTTGGAAGCCTACAGGACAACAGTCAGCCTGGCTAGAAAAAAAAACAATGTCACAG
On to B2, for which the binding result in data set [7] is “binds”.

B3: random ssDNA oligomer monovalent 80 nt (ssDNA)
DNA: TAATGAGAAGTATGTGTAGAGTCAATGAGATACGCAATTGGGAAGACAAGAGTATTGACTCGGACTGAGTACAATCGTCC
In the case of B3, the binding result in data set [8] is on record as “binds”. Take TCCCGCGAAATTAATACGACAGCACCACTTTTGGAGGGAGATTTC (ssDNA) [random 45 nt ssDNA]: the binding result in [9] was “binds”.

B4: scrambled 80 nt aptamer (ssDNA)
DNA: TAAAACGCGCTTAAGCTGGTGTTACTCGAGCGGTCTTCTATTGAAATAATTTCTGAAGGCACACGACATATGATCTTCAG
modifications: 5' amino C6 (5AmMC6)
For the molecule B4, the binding result in data set [10] is recorded as “binds”.
